Test results taken from US20150276762A1 (NVH MEDICINAL, published 2015).

Key:
[1] = molecular target: plasma von Willebrand factor of type 1 von Willebrand disease patients (human) (UniProt P04275); assay: ELISA, coated at 2 µg/ml, plasma of Patient 3 (Type 1)
[2] = molecular target: plasma von Willebrand factor of type 2 von Willebrand disease patients (Table I) (human) (UniProt P04275); assay: ELISA, coated at 2 µg/ml, plasma of Patient 8 (Type 2); collagen-binding activity over vWF antigen
[3] = molecular target: plasma von Willebrand factor of type 1 von Willebrand disease patients (human) (UniProt P04275); assay: ELISA, coated at 2 µg/ml, plasma of Patient 4 (Type 1)
[4] = molecular target: plasma von Willebrand factor of type 1 von Willebrand disease patients (human) (UniProt P04275); assay: ELISA, coated at 2 µg/ml, plasma of Patient 3 (Type 1); collagen-binding activity over vWF antigen
[5] = molecular target: plasma von Willebrand factor of type 1 von Willebrand disease patients (human) (UniProt P04275); assay: ELISA, coated at 2 µg/ml, plasma of Patient 5 (Type 1)
[6] = molecular target: plasma von Willebrand factor of type 2 von Willebrand disease patients (Table I) (human) (UniProt P04275); assay: ELISA, coated at 2 µg/ml, plasma of Patient 8 (Type 2)
[7] = molecular target: plasma von Willebrand factor of type 2 von Willebrand disease patients (Table I) (human) (UniProt P04275); assay: ELISA, coated at 2 µg/ml, plasma of Patient 6 (Type 2); collagen-binding activity over vWF antigen
[8] = molecular target: plasma von Willebrand factor of type 1 von Willebrand disease patients (human) (UniProt P04275); assay: ELISA, coated at 2 µg/ml, plasma of Patient 5 (Type 1); collagen-binding activity over vWF antigen
[9] = molecular target: plasma von Willebrand factor of type 1 von Willebrand disease patients (human) (UniProt P04275); assay: ELISA, coated at 2 µg/ml, plasma of Patient 4 (Type 1); collagen-binding activity over vWF antigen
[10] = molecular target: plasma von Willebrand factor of type 2 von Willebrand disease patients (Table I) (human) (UniProt P04275); assay: ELISA, coated at 2 µg/ml, plasma of Patient 7 (Type 2); collagen-binding activity over vWF antigen
[11] = molecular target: plasma von Willebrand factor of type 2 von Willebrand disease patients (Table I) (human) (UniProt P04275); assay: ELISA, coated at 2 µg/ml, plasma of Patient 6 (Type 2)
[12] = molecular target: plasma von Willebrand factor of type 2 von Willebrand disease patients (Table I) (human) (UniProt P04275); assay: ELISA, coated at 2 µg/ml, plasma of Patient 7 (Type 2)
[13] = molecular target: T1, plasma von Willebrand factor of healthy patients / control (reference) plasma (human, UniProt P04275 764-2813); assay: ELISA, coated at 2 µg/ml, plasma of Patient 2 (Normal); collagen-binding activity over vWF antigen
T1 construct: Unpurified, in diluted plasma; The read-out also depends on the amount of vWF in the plasma; also called Normal; Controls
Method: (§1) To that end, 100 μl of a solution containing the polypeptide at 2 or 10 μg/ml in phosphate buffer or any other suitable buffer is added in each well and incubated at 22° C. for 18 to 20 hours. After three washes with 200 μl of PBS-0.05% Tween, 200 μl of 1% BSA in phosphate buffer solution (Euromedex, 0.45 μm filter) is added in each well and incubated for 2 hours at room temperature (22° C.). After three washes with 200 μl of PBS-0.05% Tween, 100 μl of various concentrations (expressed in IU/dl) of purified von Willebrand factor (Wilfactin, 100 IU/ml, LFB) and/or of patient plasma diluted in phosphate buffer or any other suitable buffer is incubated for 1.5 hours at room temperature (22° C.). After three new washes, 100 μl of a solution containing a primary anti-vWF antibody coupled with horseradish peroxidase (rabbit anti-human vWF/HRP, DAKO) diluted to 1/8000 in phosphate buffer or any other suitable buffer is incubated for 1 hour at 22° C. and then washed 4 times as described above. 125 μl of tetramethylbenzidine solution (TMB, Sigma) as peroxidase substrate is added and then incubation is carried out in the dark for 10 to a maximum of 45 minutes. The reaction is quenched by adding 125 μl of 2 N HCl (Sigma). Absorbance is quickly measured at 450 nm in a spectrophotometer (Wallac Victor 3). […]

[14] = molecular target: T2, plasma von Willebrand factor of a patient suspected of having anti-vWF antibody (mimicking type III) (human, UniProt P04275 764-2813, limits assumed); assay: ELISA, coated at 2 µg/ml, plasma of Patient 9 (vWF activity); collagen-binding activity over vWF antigen
T2 construct: Almost no vWF antigen in this plasma; also called Patient 9; vWF activity
Method: as §1

[15] = molecular target: T1, plasma von Willebrand factor of healthy …; assay: ELISA, coated at 2 µg/ml, plasma of Patient 1 (Normal); collagen-binding activity over vWF antigen
Method: as §1

Question: What does the source list for “type III collagen (BD Biosciences), used as a reference (from UniProt P02461 154-1221)”?
Answer: Mean CB % [1]: 37%; CB/Ag ratio [2]: 0.89; Mean CB % [3]: 24%; CB/Ag ratio [4]: 0.82; Mean CB % [5]: 17%; Mean CB % [6]: 24%; CB/Ag ratio [7]: 0.74; CB/Ag ratio [8]: 0.77; CB/Ag ratio [9]: 1.41; CB/Ag ratio [10]: 0.48; Mean CB % [11]: 17%; Mean CB % [12]: 19%

B1: type III collagen (BD Biosciences), used as a reference (other, human, UniProt P02461 154-1221, looked up)
chain: QYDSYDVKSGVAVGGLAGYPGPAGPPGPPGPPGTSGHPGSPGSPGYQGPPGEPGQAGPSGPPGPPGAIGPSGPAGKDGESGRPGRPGERGLPGPPGIKGPAGIPGFPGMKGHRGFDGRNGEKGETGAPGLKGENGLPGENGAPGPMGPRGAPGERGRPGLPGAAGARGNDGARGSDGQPGPPGPPGTAGFPGSPGAKGEVGPAGSPGSNGAPGQRGEPGPQGHAGAQGPPGPPGINGSPGGKGEMGPAGIPGAPGLMGARGPPGPAGANGAPGLRGGAGEPGKNGAKGEPGPRGERGEAGIPGVPGAKGEDGKDGSPGEPGANGLPGAAGERGAPGFRGPAGPNGIPGEKGPAGERGAPGPAGPRGAAGEPGRDGVPGGPGMRGMPGSPGGPGSDGKPGPPGSQGESGRPGPPGPSGPRGQPGVMGFPGPKGNDGAPGKNGERGGPGGPGPQGPPGKNGETGPQGPPGPTGPGGDKGDTGPPGPQGLQGLPGTGGPPGENGKPGEPGPKGDAGAPGAPGGKGDAGAPGERGPPGLAGAPGLRGGAGPPGPEGGKGAAGPPGPPGAAGTPGLQGMPGERGGLGSPGPKGDKGEPGGPGADGVPGKDGPRGPTGPIGPPGPAGQPGDKGEGGAPGLPGIAGPRGSPGERGETGPPGPAGFPGAPGQNGEPGGKGERGAPGEKGEGGPPGVAGPPGGSGPAGPPGPQGVKGERGSPGGPGAAGFPGARGLPGPPGSNGNPGPPGPSGSPGKDGPPGPAGNTGAPGSPGVSGPKGDAGQPGEKGSPGAQGPPGAPGPLGIAGITGARGLAGPPGMPGPRGSPGPQGVKGESGKPGANGLSGERGPPGPQGLPGLAGTAGEPGRDGNPGSDGLPGRDGSPGGKGDRGENGSPGAPGAPGHPGPPGPVGPAGKSGDRGESGPAGPAGAPGPAGSRGAPGPQGPRGDKGETGERGAAGIKGHRGFPGNPGAPGSPGPAGQQGAIGSPGPAGPRGPVGPSGPPGKDGTSGHPGPIGPPGPRGNRGERGSEGSPGHPGQPGPPGPPGAPGPCCGGVGAAAIAGIGGEKAGGFAPYYG
notes: also called native type III collagen
Question: Which CB/Ag ratio [13] does the source give for B1 here?
Answer: 1.22

Question: What about the CB/Ag ratio [14] of the same molecule?
Answer: 0

Question: What about the CB/Ag ratio [15] of the same molecule?
Answer: 1.4
